In experiment [1] the target is GST-DR4 (residues 269-468) (UniProt O00220). The experiment can be described thus: GST pull-down on glutathione-Sepharose, immunoblot against input lane. In general terms: A western blot detects proteins with antibodies after separation by electrophoresis.
Experiment [2] shares this target. The experiment can be described thus: Scatchard analysis: DAP3-His6 at 0.1-1 µM with 1.0 µg GST-DR4 on glutathione-Sepharose, free and bound DAP3 by immunoblot densitometry.

Sequence of GST-DR4 (residues 269-468) (O00220 269-468, form in doubt): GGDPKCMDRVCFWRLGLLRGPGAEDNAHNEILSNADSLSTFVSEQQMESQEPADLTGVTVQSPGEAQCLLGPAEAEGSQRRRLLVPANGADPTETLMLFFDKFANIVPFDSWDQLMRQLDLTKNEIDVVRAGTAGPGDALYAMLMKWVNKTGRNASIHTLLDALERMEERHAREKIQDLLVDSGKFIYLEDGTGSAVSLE

As to DAP3-His6, in experiment [1], the percent of input bound lay within 10 to 20%. In addition, in experiment [2], the Kd – broadly, a measure of binding affinity in units of concentration – is 16 nM.

The record behind these values is patent US20030049702A1.
